From the nanobody polyreactivity screen of Harvey et al. (2022)

Experiment: yeast display, Sf9 membrane polyspecificity reagent, FACS + sequencing; frameworks hold sequencing errors
Summary of the method: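 Polyreactivity labels are assigned by the sorting gate from which each nanobody was recovered. The gates were low and high (top ~1%), set on anti-HA fluorescence for expression and streptavidin fluorescence for reagent binding. Before sorting, galactose-induced (36–48 hours) yeast display cells were stained for 1 hour at 4 °C with 10% biotinylated, detergent-solubilized Sf9 membrane reagent.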

Sequence	polyreactivity (PSR sort gate)
QVQLVESGGGLVQAGGSLRLSCAASGRTFNYYAMGWYRQAPGKERELVAAISSGGSTDYADSVKGRFTISRDNAKNTVYLQMNSMKPEDTAVYYCNAESYPGWAYFAYDYQFDYWGQGTQVTVSS	low polyreactivity
QVQLVESGGGLVQAGGSLRLSGAASGSTFTEYAMGWYRQAPGKEREFVAAITESGASTYYADSVKGRFTISRDNAKNTVYLQRNSLKPEDTAVYYCNAGYWRFIDSYDYWGQGTQVTVSS	high polyreactivity
QVQLVESGGGLVQAGGSLRLSCAASGSIFTDYAMGWYRQAPGKERELVAAITSSGGSTYYADSVKGRFTISRDNAKNTVYLQMNSLKPEDTAVYYCDADRITIYDYWGQGTQVTVSS	low polyreactivity
QVQLVESGGGLVQAGGSLRLSCAASGHIFSRYAMGWFRQAPGKERDLVATITNRGGSTYYADSVKGRFTISRDNAKNSVYLQMNSLKPEDTAVYYCARRTKSYVSHPLDYWGQGTQVTVSS	high polyreactivity
QVQHLESGGGLVQAGGSLRLSCAASAITFDHYAMGWYRQAPGKEREFVAAIDDIGGDTYYPDSVKGRFTSSRDNAKNNVYLQMNSVQPEDTAVYDCNADGEGADSDYEYWGQGNQVTVSS	low polyreactivity
QVQLVESGGGLVQAGGSLRLSCAASGSIFSLNAMGWYRQAPGKERELVAVINRSGTRTYYADSVKGRFTISRDNAKNTVYLQINSLKPEVTAVYYCNAEPSSGSDAQNEYWGQGTQVTVSS	high polyreactivity
QVQLVESGGGLVQAGGSLRLSCAATGRIFLKYTMGWYRQAPGKERELVAAISRGRSTYYADSVKGRFTISRDNAMNTVYLQMNSLKPEDTAVYYFAATSYRRTGYYYWGQGTQVTVSS	high polyreactivity
QVQLVESGGGLVQAGGSLRLSCAASGRIFGVNAMGWYRQAPGKERELVAHIRSSGASTYYADSVKGRFTISRDNAKNTVYLQMNSLKPEDTAVYYCARDYFVDGPGYDYWGQGTQVTVSS	low polyreactivity
QVQLVESGGGLVQAGGSLRLSCAASGYISNAMGWYRQAPGKERELVAAISRSGGSTYYADSVKGRFTISRDNAKNTVYLQMNSLKPEDTAVYYCAGDSTYHARRLDYWGQGTQVTVSS	low polyreactivity
QVQLVESGGGLVQAGGSLRLSCAASGFISRNAMGWYRQAPGKQRELVAGITRGGSTNYADSVKGRFTISRDNAKNTVYLHMNSLKPEYTAVYYFATRRRLKGLAYDYWGQGNQVTVSS	high polyreactivity
QVQLVESGGGLVQAGGSLRLSCAASGFIFWYNAKGWYRQAPGKERELVAAISSGGSTHYADSVKGRFTISRDNAKNTVYLLMNSLKPEDTAVYYCNTDGYHSNRLDDYDYWRQGTQVTVSS	low polyreactivity
QVQLVESGGGLVQAGGSLRLSCAASGSIFNANAMGWYRQAPGNERELVAGIRSGSSTNYADSVKGRFTISRDNAKNTVYLQMNSLKPEDTAVYYCATEGYWVYGFDDEYWGQGTQVTVSS	low polyreactivity
PVQLVESGGGLVQAGGSLRLSCAASGSIFCYYTMGWYRQAPGKERELVASIDYSGVSTYYADSVKGRFTISRDNAKNTVYLQMNSLKPEDTAVYDCNAVYYSWDGSTWEYGYWGQGTQVTVSS	low polyreactivity
QVQLVESGGGLVQAGGSLRLSCAASGSIFSVNTMGWYRQAPGKERELVAAISGSGGSTYYADSVKGRFTISRDNATNPVYLQMNSLKPEETAVYYCAKVYRRGAGYNYWGQGTQVTVSS	high polyreactivity
QVQLVESGGGLVQAGGSLRLSCAASGSTFIIYAMGWSRQAPGKERELVAAITRDGSTYADSVKRRFTISRDNAKNTVYLQMNRLKPEDTAVYYCAATSRQGYDYWGQGTEVTVSS	high polyreactivity
QVHLVESGGGLVQAGGSLRISCAASGLIFPDYTMGWYRPAPGKESELVAVITDGDSTYYADSVKGRFTISRDNAKNTVYLQMNSLKPEDTAVYYCASELDGSKYTLDYWGQGTQVTVSS	low polyreactivity
QVQLVESGGGLVQAGGSLRLSSAASGRTFRYYTMGWYRQAPGKEREFVAAISSTGGTYYADSVKGRFTISRDNAKNNVYLQMNSLKPEVTAVYYCAATFIQVVVNVELYDYDYWGQGTQVTVSS	low polyreactivity
QVQLVESGGGLVQAGGSLRISCAASGFTFFSNAMGWYRKAPGKERELVAAITSSGGSTYADTVKGRFTISRDNAKNTVYLQMNRLKPEDTAVYYCAADAQAPPGGFKEYDYWGQGTQVTVSS	low polyreactivity
QVQLVESGGGLVQAGGSLRLSCAASGSTFYTYAMGWYRQAPGKERELVAAISNRGGSTRYADSVKGRFTISRDTAKNTVYLQMNSLKPEDTAVYYCAARVTQTGYYWGQGTQVTVSS	high polyreactivity
QVQLVETGVGLVQAGGILRLSCAASGSTFTNNGIGWYRQAPGKEREVVATNSWDGDSTYYAYSVKGRFSISRDTAKNTVYLQMNSLKPEDTAVYYCAADEWGSDSALNFEYWGQGTQVTVSS	low polyreactivity
QVQLVESGGGLVQAGGSLRLSCAASGSTFRDYAMGWYRQAPGKERELVAAITQNGGSTYYADSVKGRFTISRDNAKNSVYLQMNSLKPEDTAVYDCAADSDWFVWQEDYWGQGTQVTVSS	low polyreactivity
QVQLVESGGGLVQAGGSLRLSCAASGSTFRYYTMGWYRQAPGKEREFVAAITSSGTSTYYADSVKGRFTISRDNAKNTVYLQMNSLKPEDTAVYYCNKVGIYGSRSRYDSWGQGTQVTVSS	high polyreactivity

Sequence	polyreactivity (PSR sort gate)
QVQLVESGGGLVHAGGSLRLSCAASGRIFIANAMGWYRQAPGNERELVAGIRGSGGRTYYADSVKGRFTISRDNAKNTVYLQMNSLKPEDTAVYDCNARTPGRLGRFDYWGQGTQVTVSS	low polyreactivity
QVQLVESGGGLVQAGGSLRLSCAASGYTFIDYAMGWYRQAPGKETELVAAITRGGRTNYADSVKGRFTISRDNAKNTVYLQMNSLKPEDTAVYYCAAALRRRRADFDYWGQGTQVTVSS	high polyreactivity
QVQLVESGGGLVQAGGSLRLSCAASGFTFRGYAMGWYRQAPGKERELVAAISNGGGTNYADSVKGRFTISRDNAKNTVYLQMNSLKPEDTAVYYCNAPGYRAENPGFDYWGQGTQVTVSS	high polyreactivity
QVQLVESGGGLVQAGGSLRLSCAASGYTFTSNDMGWYRQAPGKERELFAAITRVGSTNYADSVKGRFTISRDNAKNTVYLQMNSLKPEDTAVYYCAADLWQRHYLVGFGIRYDYWGQGTQVTVSS	low polyreactivity
QVQLVESGGGLVQAGGSLRLSCAASGFIFDPYAMGWYRQAPGTERELVASINTRGDRTSYADSVKGRFTISRDNAKNTVYLQMNSLKPEDTAVYYCNADAVDQVGPDDDYWGQGTQVTVSS	low polyreactivity
QVQLVESGGGLVQAGGSLRLSCAASGGTLYYNAMGWYRQAPGKERELVAAISGRGGRTYYADSVKGRFTISRDNAKNTVYLQMNSLKPEDTAVYYFARVTNDHYDYWGQGTQVTVSS	high polyreactivity
QVQLVESGGGLVQAGGSLRLSCAAYGRIFIGYTMGWYRQAPGNERELVAVISYRGGRTYYADSVKGRFTISRDNAKNTVYLQMNSLKPEDTAVYYCAAYRPGVISGFDYWGQGTQVTVSS	high polyreactivity
QVQLVESGGGLVQAGGSLRLSCAASGRTSRVYAMGWYRQAPGKERELVAAITWRGGNTYYADSVKGRFTISRDNAKNTVYLQMNSLKPEDTAVYYCAADKYTHKPHGDYWGQGTQVTVSS	high polyreactivity
QVHLVESGGGLVQAGGSLRLTCAASGFTFSDNAMGWYRQAPGKERELVAAISRSGGRTYYADSVKGRFTISRDNAKKTVYLQMNSLKPEDTAVYYCAAYQYGMDYWGQGTQVTVSS	high polyreactivity
QVQLVESGGGLVQAGGSLRLSCAASGYIFPTNAMGWYRPATRKERELLAVITSGGSTYYADSVKGRFTISRDNAKNTVYLLMNSLKPDDTAVYYCAARYQGRYGIYRVLYGYWGQGTQVTVSS	high polyreactivity
QVQLVESGGRLVQAGGSLRLSCDASGRTFYTNAMGWYRQEPGKEMELVAAISGRGSTYYADSVTGRFTISRDNAKNTVYLQMNSLKPEDTAVYYCAALLPGRSSSDYWGQGTQVTVSS	high polyreactivity
QVQLVESGGGLVQAGGSLRLSCAASGRTFRPYAMGWYRQAPGKEREFVARITWSGGTTYYADSVKGRFTISRDNAKNTVYLQMNRLKPEDTAVYYCAARVSRQTPVISYNYWGQGTQVTVSS	low polyreactivity
QVQLVESGGGLVQAGGSLRLSCAATGSTFAVYSMGWYRQAPGKELELVATIRRNGGSTYYADSVKGRFTISRDNAKNTVYLQMNSLQPEDTAVYYCAARSRKRWGYNYWGQGTQVTVSA	high polyreactivity
QVQLVESGGGLVQAGGSLSLICAASGSIFAPNAMGLYRQAPGKERELDATITKRGGNTYYADSVKGRFTISRDNAINTVYLKMNSLKPEDSAVFYCNDSPYSRWSSYGYDYWGQGTQVTVSS	low polyreactivity
QVQLVESGGGLVQAGGSLRLSCAASGSIFYWYAMGWYRQAPGKERELVAAITSSSGRTRYADSVKGRFTISRDNAKNTVYLQMNSLKPEDTAVYYCAAGRWGSYYTPRPYGYWGQGTQVTVSS	high polyreactivity
QVQLVESGGGLVQAGGSLRLSCAASGIIFKYYAMGWYRQAPGKERELVAAITRSGGSTYYADSVKGRFTISRDNAKNTVYLQMYSLKPEDTAVYYCAAQTGYSYGITWQFTKYNYWGQGTQVTVSS	low polyreactivity
QVQLVESGGGLVQAGGSLRLSCAASGRTFKKYAMGWYRQAPGKEREMVAAITGSGGSTYYADSVKRRFTISRDNAKNTVYLQMNSLKPEDTAVYYCAAYAYGVWHSQDGGNYWGQGTQVTVSS	low polyreactivity
QVQLVESVGGLVQAGGSLRLSCAASGLIFATYAMGWYRQAPGKESELVADITTTGSTYYADSVKGRFTISRDNAKNTDYLQMNSLKPEATAVYYCAAYCRLLSGYDFDYWGKGTQVTVSS	high polyreactivity
QVQLVESGGGLVQAGGSLRLSSAASGFTFRAYAMGWYRQAPGKERELVAGISTRGGRTYYADSVKGRFTISRDNAKNTVYLQMNSLKPEDTAVYYCNAVDKTGKYDYWGQGPQVTVSS	high polyreactivity
QVQLVESGRGLVQAGGSLRLSCAASGIIFAQNAMGWYRQAPGKEMVLVAAISLDGGSTNYADSVKGRFTISRDNAKNTVYLQMNSLKPEDTAVYYCAADDGWIEPVYGYYEHEYWGQGTQVTVSS	low polyreactivity
QVQLVESGGGLVQAGGSLRLSCAASGIIFGKYDMGWYRQAPGKEREMVAAITSGTSTNYADSVKGRFTISRDNAKNTVYLQMNSLKPEDTAVYSCAADVYLYYPYFGHRRYNYWGQGTQVTVSS	high polyreactivity
